According to the DeepSol protein solubility set:

assay: soluble on expression in E. coli; label from the status in PepcDB or PDB records

Row | Sequence | soluble on expression in E. coli
1 | MTTERVLQYPNLLKIVPYLSYSKRMELSKVSPEFRSIHSRLDYSLKTMSFSQDYGAISEEGPIEVGSGILKVESIEYIFEYDENMDQVKIKCLLAPELVRFSNDKSIIRRYFHYYLAASQRIVQHVKLRESDSPFRNLQSLKIPSISWTLNGAREYPQFINFQNHVFEKLELINYESIVLTETQVKSCKHLVLKKETIYQEYTVGNENSAIRNFYCILSNMKLELVLGLNYVESFILLCNRLLLDTLHIGSSVTAIFIKEPLLNVWRTLLERYEDSRGTFMGSGHRKCAILSTDNNIKVAVFENYFGKDSNGKESFTAIKMNNNVEFDA | not soluble
2 | MGSDKIHHHHHHMKHAFLIIAHNEYPVLEVLLSMLDDERNDIYLHIDKRATELFQQIKKVKMQKAGFYLIENPIKVYWGDISQVQVEYLLFETALSHGPYAYYHLLSGTDLPIKSQDYIHAFFQQNAGKEFVGFWQDAAHQRDLERKVFRYYFFTKRLKDKEHLLHGITALIRNLILAVQKISHYRRKQTFEFKKGGNWISITENAVKYLLQYKEIVLNRMKYTLCADEIFIQTILWNSPFRERMHCTNNANTGSMREIDWEHGSPYIWQDHDYQTLINSNKIFARKFNSNQMGVVYKIQKLYLKQVPK | not soluble
3 | MHECKTVTLRTRPLKGRMMSFYLDYYPGYRDKETMKVIRHESLGIYIYANPRNKREQNFNEVMTEKAEAIRCRRFESVVNERYDFFDKYKLKADFLEYYRKQLRKHDQKWEFVYLHFNNFVHGKCTFEEIDIDLCNKFREYLLSAKKLRRNGRITRNSASGYWSTFRGFLKILYRNGMIKTNVNDFLEKIETEDVMKEALSVEELYKLAETPCKKPILKTASLFSCMTSLRISDILSLCWEDIVDYSAGGKCVHIITQKNKAEDIIPISEEALGLIGYSSEKKGLVFKGLMRSWTQIPMKEWI | not soluble
4 | MVIHKINKLIATIKTQGIRKAIVKVAAQFKFSYKYYFIYTYNLNSSSPAIAVNEAINTNENDYSIKWWSESDFCKNKTTYLEKRSDMTDSYIENWLPLGHQTVVARSLPNNDIIGDMWLAFDNFPFPSKSKSLRDWAIENHYGYAFMAFVQPSHRGKKILPCLMNEQLKLVKDNNKKGLMALIMPKSKSSHKSFSSMGFKRVGKLHVLQLFSNNHTWISV | not soluble
5 | MQAKIKNKRVLVKFSGEALAGDNQFGIDIHVLDHIAKEIKSLVENDIEVGIVIGGGNIIRGVSAAQGGIIRRTSGDYMGMLATVINAVAMQEALEHIGLDTRVQSAIEIKEICESYIYRKAIRHLEKGRVVIFGAGTGNPFFTTDTAATLRAIEIGSDLIIKATKVDGIYDKDPNKFKDAKKLDTLSYNDALIGDIEVMDDTAISLAKDNKLPIVVCNMFKKGNLLQVIKHQQGVFSMVKLEHHHHHH | not soluble
6 | MGSDKIHHHHHHMPFSSAALHALLQPGVSERWQAVQRLLHPEMLVLANRAAERAAALLPQQWPLYELSFKSRRAIDRGGGRRDPITDYWFAFDRPPRGAGVMLTVSGIERTVTVGLQLWGVRRPQLAHLWSQARPVWEALIDRIEHEGQARFAGRRPPMTGMRWIDHYLNSRAHYLWAGFVYDWNALPTAERLIDDICALLPLNEALMEQAEIDLATTNTLRETPARYLTGAPSVAQIVMSIKRRGMIIDERTLHAFHLAVQARPLVILAGPSGSGKTWLTRLYADALIGIGEGQPNPCYLLVAVQPDWHSARDLLGYYNSLTGLYQPTPFLNFLLKAAADPDQTYIVCLDEMNLARPEYYLAPILSAMEAVEGLIDLGTPLAETPLAGGGVVRNPIRLPINLRLIGTINVDESTFALSDKVLDRANLIELGTVDMAALALTVSDSKRSGLADIERHPAPPDCCRKAGRLPRLARDTWLRWAGNRYERFRSTRSSDSAAPATALAR | not soluble
7 | MAHHHHHHMSEREHDETPVTAEGSAAAHEGSNMDLNGNESRASYIKTDLGELNMIESMCPKCQETGTTRLMITSIPHFKEIIVSSFECQHCGEVNNEVAFGGTFGPKRVRYELQVRSKQDLDRQVVKSEFATIAIPELELEIPPESQKGNLNTIEGVLEQTYSGLQLQQPLRKIQHPDVYEKIEAFCAKLASFRSGDVPFTLTLDDPAGNSYIEPIHDYYHPTLDPQLTKYEKERTEIDRQLLGIALDYNTERTQEEEKDVEEGQFSDVTQILCDCPACRRPGYIMMHECDIPYFKQTIIMAFKCEYCGYKSNEIKAGGEINAKGLRLVLHVTSEADLKRDVLKSDTATLIIPEVRLELAPGTLGGFFSTVEGTITQVRDQLMNLPQAAFAAGDSADDNSKTMLEFVKELDELLALREEFTFILDDPLGNVYIQNPCSHLPPPDDVDPKLEREEYTRTEEQDEELGILSMRHNEGQAGIEKSEDEADHEGEERNGAAAEEQETQQ | soluble
8 | MINKPNQFLNHLDGLKQHFSDYDSLQKSFKKYLSENQTELNNFFFNQFEKIIVLVKKKEFKTAQERCEEELATPYFSKPLVGFFQSLLQLINHDLIEQKNQQLANMSCEKIVEMVLSDYPNKLNLIHYLLAKEASFVNPNLLQRMTFVLTDLELLELKRFSFFKALNQIPAFKNHKVTYFNSKLKQKFVITLGEFAFPQTDKTKQFFQQLIKKVSQLFLKEPVSCEFAYEIIDALLVSFFPLHPNLEVNHLAKKIHQYVSKIVINEVVDLKDPTTKLIVDTLYEQLDRAIGEEN | soluble
9 | MPSNPTRKGRVVVGMSGGVDSSVTAWLLKQQGYEVVGLFMKNWEDDDDSEYCSTRQDLLDAASVADLVGVEFEYVNFAAEYKDRVFAEFLREYSAGRTPNPDVLCNAEIKFKAFLDHAMALGAEHIATGHYARVRTVETPAGPRHQLLKALDDTKDQSYFLHRLNQVQLARTLFPLGELRKTEVRRIAHEIGLHNAAKKDSTGICFIGERPFREFLNRYLPSEPGPILTPEGQRVGTHHGLSFYTLGQRKGLGVGGVKGRQRDDGTAEAWYAARKDLARNVLYVVQGHDHPWLLSAQLQAQDASWIAGEPPAAGAYGAKTRYRQADAACRLDQAGGERFALAFEQAQWAVTPGQSAVLYDGEVCLGGGIIILEHHHHHH | soluble
10 | MAHHHHHHMGRVRHGATICSAVSDATAGKQKSACVTDVEEIPTLSFLSSKSILSETVDRTIEVCDALLNEIPKAKSIKEKHDLIDSTSNVLCLLLDPCEFVRQVHPDAEYKQHASYAFQKGYEYMSKVNSRRDLYDVVLQLDSTEGHKELSSEEIKNVAQLRRDMESNGIHLPDKLREKVTEMNIEKEELAMRFLTEQGSKNPFATLRYLLQCRYELSQLLGFESFAEQQLRGTMLENQQRVWHFLCGIAHKYRREAEKEMDIIRSNVGEVRNRQNITDDVRARVAHSLRRDAEPETAAEYFSVANCIRGIQCLCLEVFGVRLEEVQFDKDEIFNNDAKKYHVYDENKAFLGVIVLDLYASEMKYCQAGHLTLQLGCIPHQEALAKVGLKLPKRQYPVVVLTCNVGACSPVQRLPNGRFDDESTLMHPNEVTTVFHEFGHAMHTIFGQTKVQNLAGTRASIDFVETFSQLFEQFLTSHEFLQLWAHRISTREPISFDMVMKRNAAADMFKHLDMMDQVVLSAVDQTLHGPQPYTVYFPRGDQGNLGKRTLGDIGDYGRGTYNLAKVLIDICTPLSIVTPTETGVLGTLSFEHLSGYPAGYYGYLYSLSIARRIWAKKFMKDPLNRDAGRELVQKVMRHGAACNPVDVIENYLEDKLDEIDIWV | not soluble
11 | GMFASLVIPVSAQANSGEMPQEQQLAVKYMDALTEHDYKTLITFYNRDSIFFDKTANRKYTGGRFIIDFLERAHQGVLEYDFNIEHMYNAGSLVVMIGNYHFKGPGEQFGKPGKIIDVAIPAVTSLKLDMLNRRVTEHVDLIDYQTMSDQLAMQ | soluble
12 | TSKFQWTSDFNIGFNRNRVTELYGGKPELKGLKRLEEGRDMDEWYLREWAGVDPANGSPLWYTTDENGKRTTTDSYNKADRVYCGSAAPKFTGGWMNSFSYKGFTLTANFDFVYGNLLYNQSRELLDSDGAYADYNSMKLKSGWKRWEKEGDIATHPKAINGGNKNSNKSSSRYLEKGNYFSLRNLSLGYSIPEKLCGKLGLQRVNVSCSADNLFTLTPFSGVSPQLSDSSTDGYAGTIYPLSRRIVFGLNVSF | not soluble
13 | MSSDPDKMMSKADKMTKLTLTRWSADWRGATELYEQAANGFRASNKYEKAKVALEKASKGQEMQASPWDAAKHMESAAALAQKLSIWNEVADFYRKASELYVECGRAQPASDALGKAARALEDVKPDDAIQLYTDACEILEEDGRDQMAFDLYRACANVYIKLEKFTDAATFFLRLGVAADKCDATNSQCKAYLSAIILYLYAHDLQQAEKCYNDCSQIDAFLKSDQSRSASRLLTAYNEGDIEEIKKVASASTVSNLDHMIIKLARKLPTGDVTAIQMNTNDDLDEDDLT | soluble
14 | MGSDKIHHHHHHMVDIHSHIIPGIDDGSNSLETTLNMMSIAKEAGVTKMVATSHYYRGKFENSISVIEKKANELNYTLKEKGVDIDVIPGQEVFIDNYTLKDYKEGIIGTINNTDYMLVEFDMMSLGENAIDTLYELQIKGIKPIIAHPERYTYIQKDIYKINELMDENIYFQVNAGSIEGLFGKTVQKTALKLVEEGVISFIASDAHSAGKRCPGYEKALHDLTKIDKTLAEKFIKNSNLLLENEKIENKVRKLKKKKTFFSFLK | not soluble
15 | MVFGFLKGVRRRPPLNRACPPIPESKSNESIMSHASRISEHQKAAAAAAATSETTTGDLVIENRNVVDVLHRLDANSNIALPPSSNIRKSKEKKAKMSSTPRSPLMSMANSVKSKLTKITHLGRSSNESSGSSSNIKTSQSFSGIRQPKQIPKRIDQNANRVIKSSSMEVPSTSKVCIPQDPTPLIDDKIEEISEAGLISKSEMAPPKPKEHVCVKLEEDVLVVTKEFDERYPGQKRSASPDVPMVEESQTMSEVDQLPSEQVAETFSEDNVNELDNNANQKTPGPVRRIIQETTTTTITTTTFDSPIPIIEKMEVERPEEAEDVIVIEAPEPVQPPIPSPKKERFTSPERYILLVKTPEALRKHRTLTIGEKDPTEVDTEEKIQYTRLETVKFKEVKEKVKYEEPVPKEKFILTMKTPEAIRRHHTFTIRDKSPEEMNKITKITKSQSDVHVSKRAAKKLVKQASEPERRDLFEEKEDVVPEPKFVIVMKTPECLRRHHTFTIGDRPKSPDYPYIEEGEITEPIATIGPPADRRKKEEAKERKKREWEEYETPPKEKFILTTTTPLAIRKYQTFVVEPKDEKTALPQSASADAVMLAKKGKVQRKNVTSSIQQLSLDEPITSPSRKPVSPEPRHLFVMGGRRSTTPQEDRKVPEPPRNLKLDTDRSQSDHAELLEERKSTMSGDLTSPEEEIPMDTNLTPTTEEVMEAVIVSRRIEGLMTSPIEEEPEGLTSSIRDLSIRSLAKETERPAPVFTPPSPPKENPFHVMTVPKSTLTSSSESAMPMTSSSSSIRAKPNQLPIKKTIQVVDPMHIVELKPEHKSKKEALAAKSLRNAGKMLTPSFLRKEKKGPKKSLYAKTTSSGRQHISEKKEK | not soluble
16 | MGSDKIHHHHHHMNYDDPKKKVGRNIKRLRLKAGIKSQAALAELCGWKSQSRVGNYEAGTRAVSAIDAETLAKVLNVTPAEILYGENNKDDDFVSMPSAQYSSGPYEEEDPFQLFKPKQELQNAEWHAGFELWDGDTPLRDDEVALPFYREVELAAGSGSTFVQENGGCKLRFAKSTLKKSRVEPSNAACVTVSGNSMLPVLRHGTTVGVDTSKKSIIDGEMYAIDHDGMLRVKMLYRTPGGGIRIKSYNNDEFPDEFIPPEKASDIKIIGWVFWWSVLNVWNN | not soluble
17 | LLQHAHNPVNWYSWSPEAFSKAKSEDKPIFLSIGYSTCHWCHVMERESFEDDDVAEVLNRSFVSIKVDREERPDIDEIYMNVCTAITGSGGWPLTIVMTPEQKPFFAGTYIPKNNRMGMQGLISLLENIEYQWKENQNELVEIGDKIVSSLNKDRKT | not soluble
